According to patent US20230250154A1 (CYTONICS, published 2023):

B1: Variant A2M, bait region SEQ ID NO 132 (other)
chain: SVSGKPQYMVLVPSLLHTETTEKGCVLLSYLNETVTVSASLESVRGNRSLFTDLEAENDVLHCVAFAVPKSSSNEEVMFLTVQVKGPTQEFKKRTTVMVKNEDSLVFVQTDKSIYKPGQTVKFRVVSMDENFHPLNELIPLVYIQDPKGNRIAQWQSFQLEGGLKQFSFPLSSEPFQGSYKVVVQKKSGGRTEHPFTVEEFVLPKFEVQVTVPKIITILEEEMNVSVCGLYTYGKPVPGHVTVSICRKYSDASDCHGEDSQAFCEKFSGQLNSHGCFYQQVKTKVFQLKRKEYEMKLHTEAQIQEEGTVVELTGRQSSEITRTITKLSFVKVDSHFRQGIPFFGQVRLVDGKGVPIPNKVIFIRGNEANYYSNATTDEHGLVQFSINTTNVMGTSLTVRVNYKDRSPCYGYQWVSEEHEEAHHTAYLVFSPSKSFVHLEPMSHELPCGHTQTVQAHYILNGGTLLGLKKLSFYYLIMAKGGIVRTGTHGLLVKQEDMKGHFSISIPVKSDIAPVARLLIYAVLPTGDVIGDSAKYDVENCLANKVDLSFSPSQSLPASHAHLRVTAAPQSVCALRAVDQSVLLMKPDAELSASSVYNLLPEKDLTGFPGPLNDQDDEDCINRHNVYINGITYTPVSSTNEKDMYSFLEDMGLKAFTNSKIRKPKMCPQLEQYEMHGPEGEGEGEGIPENFFGVSELEGRGSSEDLVVQIVEEPHTKLRKYFPETWIWDLVVVNSAGVAEVGVTVPDTITEWKAGAFCLSEDAGLGISSTASLRAFQPFFVELTMPYSVIRGEAFTLKATVLNYLPKCIRVSVQLEASPAFLAVPVEKEQAPHCICANGRQTVSWAVTPKSLGNVNFTVSAEALESQELCGTEVPSVPEHGRKDTVIKPLLVEPEGLEKETTFNSLLCPSGGEVSEELSLKLPPNVVEESARASVSVLGDILGSAMQNTQNLLQMPYGCGEQNMVLFAPNIYVLDYLNETQQLTPEIKSKAIGYLNTGYQRQLNYKHYDGSYSTFGERYGRNQGNTWLTAFVLKTFAQARAYIFIDEAHITQALIWLSQRQKDNGCFRSSGSLLNNAIKGGVEDEVTLSAYITIALLEIPLTVTHPVVRNALFCLESAWKTAQEGDHGSHVYTKALLAYAFALAGNQDKRKEVLKSLNEEAVKKDNSVHWERPQKPKAPVGHFYEPQAPSAEVEMTSYVLLAYLTAQPAPTSEDLTSATNIVKWITKQQNAQGGFSSTQDTVVALHALSKYGAATFTRTGKAAQVTIQSSGTFSSKFQVDNNNRLLLQQVSLPELPGEYSMKVTGEGCVYLQTSLKYNILPEKEEFPFALGVQTLPQTCDEPKAHTSFQISLSVSYTGSRSASNMAIVDVKMVSGFIPLKPTVKMLERSNHVSRTEVSSNHVLIYLDKVSNQTLSLFFTVLQDVPVRDLKPAIVKVYDYYETDEFAIAEYNAPCSKDLGNADYKDDDDKGASHHHHHH
B2: Variant A2M, bait region SEQ ID NO 136 (other)
chain: SVSGKPQYMVLVPSLLHTETTEKGCVLLSYLNETVTVSASLESVRGNRSLFTDLEAENDVLHCVAFAVPKSSSNEEVMFLTVQVKGPTQEFKKRTTVMVKNEDSLVFVQTDKSIYKPGQTVKFRVVSMDENFHPLNELIPLVYIQDPKGNRIAQWQSFQLEGGLKQFSFPLSSEPFQGSYKVVVQKKSGGRTEHPFTVEEFVLPKFEVQVTVPKIITILEEEMNVSVCGLYTYGKPVPGHVTVSICRKYSDASDCHGEDSQAFCEKFSGQLNSHGCFYQQVKTKVFQLKRKEYEMKLHTEAQIQEEGTVVELTGRQSSEITRTITKLSFVKVDSHFRQGIPFFGQVRLVDGKGVPIPNKVIFIRGNEANYYSNATTDEHGLVQFSINTTNVMGTSLTVRVNYKDRSPCYGYQWVSEEHEEAHHTAYLVFSPSKSFVHLEPMSHELPCGHTQTVQAHYILNGGTLLGLKKLSFYYLIMAKGGIVRTGTHGLLVKQEDMKGHFSISIPVKSDIAPVARLLIYAVLPTGDVIGDSAKYDVENCLANKVDLSFSPSQSLPASHAHLRVTAAPQSVCALRAVDQSVLLMKPDAELSASSVYNLLPEKDLTGFPGPLNDQDDEDCINRHNVYINGITYTPVSSTNEKDMYSFLEDMGLKAFTNSKIRKPKMCPQLEQYEMHGPKEEEGLGSIPENFFGVSELEGRGSEGEGEGEGVEEPHTKLRKYFPETWIWDLVVVNSAGVAEVGVTVPDTITEWKAGAFCLSEDAGLGISSTASLRAFQPFFVELTMPYSVIRGEAFTLKATVLNYLPKCIRVSVQLEASPAFLAVPVEKEQAPHCICANGRQTVSWAVTPKSLGNVNFTVSAEALESQELCGTEVPSVPEHGRKDTVIKPLLVEPEGLEKETTFNSLLCPSGGEVSEELSLKLPPNVVEESARASVSVLGDILGSAMQNTQNLLQMPYGCGEQNMVLFAPNIYVLDYLNETQQLTPEIKSKAIGYLNTGYQRQLNYKHYDGSYSTFGERYGRNQGNTWLTAFVLKTFAQARAYIFIDEAHITQALIWLSQRQKDNGCFRSSGSLLNNAIKGGVEDEVTLSAYITIALLEIPLTVTHPVVRNALFCLESAWKTAQEGDHGSHVYTKALLAYAFALAGNQDKRKEVLKSLNEEAVKKDNSVHWERPQKPKAPVGHFYEPQAPSAEVEMTSYVLLAYLTAQPAPTSEDLTSATNIVKWITKQQNAQGGFSSTQDTVVALHALSKYGAATFTRTGKAAQVTIQSSGTFSSKFQVDNNNRLLLQQVSLPELPGEYSMKVTGEGCVYLQTSLKYNILPEKEEFPFALGVQTLPQTCDEPKAHTSFQISLSVSYTGSRSASNMAIVDVKMVSGFIPLKPTVKMLERSNHVSRTEVSSNHVLIYLDKVSNQTLSLFFTVLQDVPVRDLKPAIVKVYDYYETDEFAIAEYNAPCSKDLGNADYKDDDDKGASHHHHHH

How the values were obtained:
Assay in all cases: cell-based or functional assay
ADAMTS4 = biological target: T1, ADAMTS4 (human, UniProt O75173 213-685, limits assumed)
T1 sequence (looked up): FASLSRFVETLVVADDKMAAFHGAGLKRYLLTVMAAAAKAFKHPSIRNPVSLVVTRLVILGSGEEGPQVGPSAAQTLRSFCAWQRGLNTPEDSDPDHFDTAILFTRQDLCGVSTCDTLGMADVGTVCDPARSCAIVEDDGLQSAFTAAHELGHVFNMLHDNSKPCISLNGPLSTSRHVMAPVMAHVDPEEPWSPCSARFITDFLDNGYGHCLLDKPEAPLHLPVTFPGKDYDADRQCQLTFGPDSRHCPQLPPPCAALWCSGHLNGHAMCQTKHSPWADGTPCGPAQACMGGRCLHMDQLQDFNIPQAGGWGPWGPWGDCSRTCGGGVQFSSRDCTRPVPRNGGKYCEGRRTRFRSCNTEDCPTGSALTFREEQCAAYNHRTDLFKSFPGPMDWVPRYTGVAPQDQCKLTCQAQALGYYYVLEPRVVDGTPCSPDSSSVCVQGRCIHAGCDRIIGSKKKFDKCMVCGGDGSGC

MMP8 = MMP8 (human, UniProt P22894 101-467, limits assumed)
Sequence of MMP8 (P22894 101-467 limits assumed): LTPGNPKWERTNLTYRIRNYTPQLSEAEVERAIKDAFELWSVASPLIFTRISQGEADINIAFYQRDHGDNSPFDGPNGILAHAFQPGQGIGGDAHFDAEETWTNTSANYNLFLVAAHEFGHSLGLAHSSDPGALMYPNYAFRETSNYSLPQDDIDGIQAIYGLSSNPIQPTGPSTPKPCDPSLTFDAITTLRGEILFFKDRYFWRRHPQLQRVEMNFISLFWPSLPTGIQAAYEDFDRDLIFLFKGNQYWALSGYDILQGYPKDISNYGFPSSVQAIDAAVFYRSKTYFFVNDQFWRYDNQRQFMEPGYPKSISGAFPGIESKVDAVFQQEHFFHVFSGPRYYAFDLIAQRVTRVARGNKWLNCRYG

MMP3 = MMP3 (human, UniProt P08254 100-477, limits assumed)
Sequence of MMP3 (P08254 100-477 limits assumed): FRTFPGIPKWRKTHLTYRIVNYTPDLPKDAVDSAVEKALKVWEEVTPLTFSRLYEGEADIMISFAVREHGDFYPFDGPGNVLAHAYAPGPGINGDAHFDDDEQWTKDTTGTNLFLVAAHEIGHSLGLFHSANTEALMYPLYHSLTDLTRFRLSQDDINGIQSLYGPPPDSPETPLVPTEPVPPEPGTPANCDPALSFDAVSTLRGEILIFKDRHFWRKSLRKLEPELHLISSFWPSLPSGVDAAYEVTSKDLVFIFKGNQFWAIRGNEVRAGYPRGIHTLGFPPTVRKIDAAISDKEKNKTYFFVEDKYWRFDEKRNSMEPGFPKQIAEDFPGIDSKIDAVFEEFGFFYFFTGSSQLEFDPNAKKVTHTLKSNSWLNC

ADAMTS5 = biological target: T2, ADAMTS5 (human, UniProt Q9UNA0 262-622, limits assumed)
T2 sequence (looked up): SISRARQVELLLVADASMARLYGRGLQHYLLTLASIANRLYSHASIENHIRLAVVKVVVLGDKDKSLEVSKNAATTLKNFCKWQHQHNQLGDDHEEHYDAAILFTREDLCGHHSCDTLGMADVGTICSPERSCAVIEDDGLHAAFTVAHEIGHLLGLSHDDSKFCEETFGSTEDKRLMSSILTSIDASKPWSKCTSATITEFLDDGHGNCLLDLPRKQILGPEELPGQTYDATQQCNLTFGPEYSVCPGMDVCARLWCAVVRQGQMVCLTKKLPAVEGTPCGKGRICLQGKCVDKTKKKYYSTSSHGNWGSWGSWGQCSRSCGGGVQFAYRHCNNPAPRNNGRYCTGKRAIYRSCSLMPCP

MMP2 = biological target: T3, MMP2 (human, UniProt P08253 110-660, limits assumed)
T3 sequence (looked up): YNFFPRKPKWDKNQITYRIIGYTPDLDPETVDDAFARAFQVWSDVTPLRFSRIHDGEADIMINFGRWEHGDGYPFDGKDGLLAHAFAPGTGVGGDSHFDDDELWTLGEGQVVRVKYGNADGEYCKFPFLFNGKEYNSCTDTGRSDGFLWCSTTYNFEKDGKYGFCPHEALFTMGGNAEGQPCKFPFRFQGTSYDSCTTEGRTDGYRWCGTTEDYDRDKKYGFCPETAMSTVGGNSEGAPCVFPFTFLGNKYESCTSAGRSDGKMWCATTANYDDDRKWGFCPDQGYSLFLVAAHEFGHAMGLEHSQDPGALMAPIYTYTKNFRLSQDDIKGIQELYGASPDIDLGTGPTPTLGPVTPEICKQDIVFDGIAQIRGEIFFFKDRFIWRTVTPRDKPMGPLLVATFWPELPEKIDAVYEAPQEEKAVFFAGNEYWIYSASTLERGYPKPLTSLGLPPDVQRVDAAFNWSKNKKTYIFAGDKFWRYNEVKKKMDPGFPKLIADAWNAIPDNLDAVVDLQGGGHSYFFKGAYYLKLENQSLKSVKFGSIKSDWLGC

MMP13 = MMP13 (human, UniProt P45452 104-471, limits assumed)
MMP12 = MMP12 (human, UniProt P39900 106-470, limits assumed)
Sequence of MMP12 (P39900 106-470 limits assumed): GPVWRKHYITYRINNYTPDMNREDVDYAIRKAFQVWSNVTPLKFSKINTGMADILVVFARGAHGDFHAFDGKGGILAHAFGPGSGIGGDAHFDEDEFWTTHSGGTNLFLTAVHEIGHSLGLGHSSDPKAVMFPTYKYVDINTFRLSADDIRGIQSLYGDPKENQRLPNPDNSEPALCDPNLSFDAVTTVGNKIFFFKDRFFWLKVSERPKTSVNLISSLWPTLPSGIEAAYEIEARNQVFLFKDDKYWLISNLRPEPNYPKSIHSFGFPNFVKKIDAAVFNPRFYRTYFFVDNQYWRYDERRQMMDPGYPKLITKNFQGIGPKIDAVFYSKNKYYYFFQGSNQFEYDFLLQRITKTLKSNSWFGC

MMP1 = biological target: T4, MMP1 (human, UniProt P03956 100-469, limits assumed)
T4 sequence (looked up): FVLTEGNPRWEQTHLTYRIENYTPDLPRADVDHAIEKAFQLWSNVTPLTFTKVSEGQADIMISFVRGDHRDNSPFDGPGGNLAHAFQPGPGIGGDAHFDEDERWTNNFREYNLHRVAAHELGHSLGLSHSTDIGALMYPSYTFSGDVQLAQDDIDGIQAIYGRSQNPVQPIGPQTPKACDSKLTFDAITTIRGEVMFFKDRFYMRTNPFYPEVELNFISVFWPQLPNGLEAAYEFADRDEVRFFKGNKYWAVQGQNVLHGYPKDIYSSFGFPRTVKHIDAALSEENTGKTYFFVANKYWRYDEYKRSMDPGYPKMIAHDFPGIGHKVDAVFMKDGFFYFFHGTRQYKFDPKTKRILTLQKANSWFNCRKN

MMP9 = MMP9 (human, UniProt P14780 107-707, limits assumed)
Sequence of MMP9 (P14780 107-707 limits assumed): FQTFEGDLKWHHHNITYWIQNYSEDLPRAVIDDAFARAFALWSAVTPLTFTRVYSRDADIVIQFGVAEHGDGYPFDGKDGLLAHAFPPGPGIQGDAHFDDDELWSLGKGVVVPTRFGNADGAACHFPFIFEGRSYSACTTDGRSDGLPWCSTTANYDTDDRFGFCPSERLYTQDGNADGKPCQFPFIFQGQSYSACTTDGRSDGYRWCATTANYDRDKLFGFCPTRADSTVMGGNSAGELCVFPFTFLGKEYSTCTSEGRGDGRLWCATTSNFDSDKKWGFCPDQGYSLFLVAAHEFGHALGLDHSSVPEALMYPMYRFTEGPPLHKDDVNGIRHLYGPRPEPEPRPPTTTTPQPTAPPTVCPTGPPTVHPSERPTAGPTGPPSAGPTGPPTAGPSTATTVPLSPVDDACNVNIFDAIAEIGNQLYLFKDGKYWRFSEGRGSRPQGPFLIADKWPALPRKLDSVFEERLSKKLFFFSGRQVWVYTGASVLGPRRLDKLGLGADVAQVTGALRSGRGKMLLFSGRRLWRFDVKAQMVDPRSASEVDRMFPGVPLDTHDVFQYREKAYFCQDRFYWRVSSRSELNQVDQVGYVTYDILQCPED

Cathepsin G = biological target: T5, Cathepsin G (UniProt P08311 21-244)
T5 sequence (looked up): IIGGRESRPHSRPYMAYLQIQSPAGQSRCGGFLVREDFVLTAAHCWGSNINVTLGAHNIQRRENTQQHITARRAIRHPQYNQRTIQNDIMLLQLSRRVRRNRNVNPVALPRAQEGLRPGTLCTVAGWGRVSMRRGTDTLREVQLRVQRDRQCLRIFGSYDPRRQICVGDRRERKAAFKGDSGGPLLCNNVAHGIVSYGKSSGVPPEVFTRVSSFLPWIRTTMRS

Elastase = biological target: Elastase
bovine trypsin = bovine trypsin (bovine, UniProt P00760 24-246)
Sequence of bovine trypsin (P00760 24-246): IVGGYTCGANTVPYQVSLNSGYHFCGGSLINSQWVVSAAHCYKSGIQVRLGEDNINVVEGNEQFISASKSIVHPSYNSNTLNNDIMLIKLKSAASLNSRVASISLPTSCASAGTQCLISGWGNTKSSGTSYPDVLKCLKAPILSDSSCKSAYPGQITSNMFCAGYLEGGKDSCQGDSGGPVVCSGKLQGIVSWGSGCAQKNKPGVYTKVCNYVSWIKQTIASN

chymotrypsin = biological target: chymotrypsin

Binder | Protease Inhibition (% of WT) (ADAMTS4) | Protease Inhibition (% of WT) (MMP8) | Protease Inhibition (% of WT) (MMP3) | Protease Inhibition (% of WT) (ADAMTS5) | Protease Inhibition (% of WT) (MMP2) | Protease Inhibition (% of WT) (MMP13) | Protease Inhibition (% of WT) (MMP12) | Protease Inhibition (% of WT) (MMP1) | Protease Inhibition (% of WT) (MMP9) | Protease Inhibition (% of WT) (Cathepsin G) | Protease Inhibition (% of WT) (Elastase) | Protease Inhibition (% of WT) (bovine trypsin) | Protease Inhibition (% of WT) (chymotrypsin)
B1 | 86 % of WT | 161 % of WT | 100 % of WT | 185 % of WT | 67 % of WT | 117 % of WT | 136 % of WT | 388 % of WT | 500 % of WT | 437 % of WT | 300 % of WT | 20 % of WT | 10 % of WT
B2 | 80 % of WT | 133 % of WT | 130 % of WT | 373 % of WT | 47 % of WT | 113 % of WT | 150 % of WT | 370 % of WT | 500 % of WT | 376 % of WT | 250 % of WT | 221 % of WT | 25 % of WT
